Earlier results in paper PMC8909277.

Key:
claudin-9 (Homo sapiens) = claudin-9 (Homo sapiens) (UniProt O95484); assay: BLI
claudin-4 (Homo sapiens) = claudin-4 (Homo sapiens) (UniProt O14493); assay: SPR
Sequence of UniProt O14493 (O14493 whole entry): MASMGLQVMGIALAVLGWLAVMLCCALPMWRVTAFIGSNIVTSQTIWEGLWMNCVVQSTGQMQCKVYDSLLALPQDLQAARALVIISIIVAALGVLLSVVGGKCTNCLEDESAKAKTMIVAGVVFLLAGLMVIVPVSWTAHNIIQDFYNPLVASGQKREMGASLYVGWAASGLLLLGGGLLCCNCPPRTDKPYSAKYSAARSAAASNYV

Sequence of UniProt O95484 (O95484 whole entry): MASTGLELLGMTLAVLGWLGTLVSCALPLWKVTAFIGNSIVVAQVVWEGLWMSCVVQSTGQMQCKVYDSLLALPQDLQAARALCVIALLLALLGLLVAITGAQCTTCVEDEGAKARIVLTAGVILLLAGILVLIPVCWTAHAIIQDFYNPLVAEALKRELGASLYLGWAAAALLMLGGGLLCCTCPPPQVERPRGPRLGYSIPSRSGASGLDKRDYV

Row | Substance | Kd (claudin-9 (Homo sapiens)) [nM] | Kd (claudin-4 (Homo sapiens)) [nM]
1 | CpE (from UniProt P01558) | 5 | 
2 | cCpE C-terminal domain (from UniProt P01558) | 5 | 3.4
